Measured values reported in patent publication US8697369B2, “Method for screening a test substance for activating a receptor associated with FGF 21 activity” (National Institute of Advanced Industrial Science and …, priority 2007, dated 2014).
“Also recorded” adds a separate entry of the source.

B1: FGF21: fibroblast growth factor 21; mouse-derived protein used in Examples 1-7 and 10-13 (protein)
chain: AYPIPDSSPLLQFGGQVRQRYLYTDDDQDTEAHLEIREDGTVVGAAHRSPESLLELKALKPGVIQILGVKASRFLCQQPDGALYGSPHFDPEACSFRELLLEDGYNVYQSEAHGLPLRLPQKDSPNQDATSWGPVRFLPMPGLLHEPQDQAGFLPPEPPDVGSSDPLSMVEPLQGRSPSYAS

Experiments:
[1] = tested on: FGFR3c/betaKlotho-expressing BaF3 cells; assay: DNA synthesis (thymidine incorporation) in FGFR3c/betaKlotho-expressing BaF3 cells; type: cell-based, mouse; settings: BaF3 cells expressing FGFR3c and betaKlotho
FGFR3c/betaKlotho-expressing BaF3 cells, sequence (Q61851 21-369 limits assumed): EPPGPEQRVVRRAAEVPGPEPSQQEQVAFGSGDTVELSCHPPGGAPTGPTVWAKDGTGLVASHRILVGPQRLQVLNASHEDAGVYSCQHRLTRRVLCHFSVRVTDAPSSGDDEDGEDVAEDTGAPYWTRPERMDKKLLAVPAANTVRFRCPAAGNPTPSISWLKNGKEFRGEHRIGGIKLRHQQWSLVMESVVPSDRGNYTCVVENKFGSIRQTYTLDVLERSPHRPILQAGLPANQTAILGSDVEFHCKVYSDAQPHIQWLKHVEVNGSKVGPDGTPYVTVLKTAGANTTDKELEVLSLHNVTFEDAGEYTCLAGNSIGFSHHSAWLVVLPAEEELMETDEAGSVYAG
FGFR3c/betaKlotho-expressing BaF3 cells, sequence (Q99N32 whole entry, further chain): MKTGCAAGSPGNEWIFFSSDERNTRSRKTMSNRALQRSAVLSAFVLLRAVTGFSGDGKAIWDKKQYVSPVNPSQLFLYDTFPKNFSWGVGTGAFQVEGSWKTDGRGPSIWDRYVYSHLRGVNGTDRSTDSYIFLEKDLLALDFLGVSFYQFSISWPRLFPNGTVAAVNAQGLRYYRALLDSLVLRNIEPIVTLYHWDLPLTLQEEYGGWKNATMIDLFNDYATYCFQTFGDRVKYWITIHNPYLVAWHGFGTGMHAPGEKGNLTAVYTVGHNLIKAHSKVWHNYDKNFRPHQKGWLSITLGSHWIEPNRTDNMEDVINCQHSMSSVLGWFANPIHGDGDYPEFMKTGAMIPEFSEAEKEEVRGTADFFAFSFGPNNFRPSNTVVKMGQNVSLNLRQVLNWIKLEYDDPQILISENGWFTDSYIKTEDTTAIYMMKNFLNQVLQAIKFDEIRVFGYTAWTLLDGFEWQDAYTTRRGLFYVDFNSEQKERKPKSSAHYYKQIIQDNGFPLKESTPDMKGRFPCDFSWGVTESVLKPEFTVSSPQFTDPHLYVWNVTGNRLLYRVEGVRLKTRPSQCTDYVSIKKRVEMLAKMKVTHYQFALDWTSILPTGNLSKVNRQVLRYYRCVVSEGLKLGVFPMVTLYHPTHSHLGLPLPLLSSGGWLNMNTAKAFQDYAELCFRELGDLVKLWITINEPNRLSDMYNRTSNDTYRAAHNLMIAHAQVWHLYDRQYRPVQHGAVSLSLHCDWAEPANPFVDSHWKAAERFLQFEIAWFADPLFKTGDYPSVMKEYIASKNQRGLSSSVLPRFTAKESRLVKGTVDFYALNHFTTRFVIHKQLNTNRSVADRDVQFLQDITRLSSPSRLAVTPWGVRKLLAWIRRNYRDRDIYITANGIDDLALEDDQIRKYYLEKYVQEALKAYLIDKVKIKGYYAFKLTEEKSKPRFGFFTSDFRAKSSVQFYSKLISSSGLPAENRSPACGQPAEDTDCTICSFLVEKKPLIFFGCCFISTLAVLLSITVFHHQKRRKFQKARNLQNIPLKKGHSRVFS
Protocol: A commonly used measurement method is a cell growth stimulating activity measurement method described in Ornitz, D. M., Xu, J., Colvin, J. S., McEwen, D. G., MacArthur, C. A., Coulier, F., Gao, G. and Goldfarb, M. (1996) Receptor specificity of the fibroblast growth factor family. J Biol Chem, 271, 15292-15297. The summary thereof is as follows. FGF used as a measurement target is added to a culture solution containing a cultured cell having an FGF receptor on the surface thereof, and the obtained mixture is cultured for a certain period of time. Thereafter, a labeled thymidine is added to the culture solution, followed by further culture for a certain period of time. By measuring the amount of the labeled thymidine incorporated into polymeric DNA during the culture, the degree of FGF to activate DNA synthesis is evaluated. (In the present invention as well, this method was adopted when the activity of FGF21 was measured in Examples 4, 5, 6, 8, 9, and 10.)
(§1) Whether other receptor molecules can also act as such FGF receptors was examined. An expression vector containing each FGFR (FGFR1b, R1c, R2b, R2c, R3b, R3c, and R4) (described in Ornitz, D. M., Xu, J., Colvin, J. S., McEwen, D. G., MacArthur, C. A., Coulier, F., Gao, G. and Goldfarb, M. (1996) Receptor specificity of the fibroblast growth factor family. J Biol Chem, 271, 15292-15297.) was introduced into betaKlotho-expressing BaF3 cells, so as to obtain clones that were resistant to Puromycin and G418, thereby obtaining FGFR/betaKlotho-expressing cells. Such cells were stimulated with FGF21, and the amount of DNA synthesized was measured.
The activity of FGF21 to stimulate the DNA synthesis of BaF3 cells that had expressed each FGFR (FGFR1c, R2c, F3c, and R4) as well as betaKlotho was compared with the activity of FGF19, which was evolutionally relative to FGF21. By procedures opposite to those of Example 5, namely, an expression vector containing betaKlotho was introduced into BaF3 cells that had expressed each type of FGFR, so as to obtain Puromycin- and G418-resistant clones, thereby obtaining FGFR/betaKlotho-expressing cells. The cells were stimulated with FGF21, FGF19, and FGF1 in the presence of heparin, while changing the amounts of FGF21, FGF19, and FGF1, as shown in the figure, and the amount of DNA synthesized was then measured.

[2] = target: T1, FGFR2c/betaKlotho-expressing cells (Mus musculus, UniProt P21803+Q99N32); assay: Phosphorylation of FRS2 and MAPK (Western blotting) in FGFR2c/betaKlotho-expressing cells; type: cell-based; settings: presence of heparin; 10 minutes stimulation
T1 construct: the entire-length cDNA of mouse betaKlotho was cloned into an animal cell expression vector; expressed in transfected cells; host or cells: BaF3 (mouse pro-B) cells
T1 sequence (P21803 22-821): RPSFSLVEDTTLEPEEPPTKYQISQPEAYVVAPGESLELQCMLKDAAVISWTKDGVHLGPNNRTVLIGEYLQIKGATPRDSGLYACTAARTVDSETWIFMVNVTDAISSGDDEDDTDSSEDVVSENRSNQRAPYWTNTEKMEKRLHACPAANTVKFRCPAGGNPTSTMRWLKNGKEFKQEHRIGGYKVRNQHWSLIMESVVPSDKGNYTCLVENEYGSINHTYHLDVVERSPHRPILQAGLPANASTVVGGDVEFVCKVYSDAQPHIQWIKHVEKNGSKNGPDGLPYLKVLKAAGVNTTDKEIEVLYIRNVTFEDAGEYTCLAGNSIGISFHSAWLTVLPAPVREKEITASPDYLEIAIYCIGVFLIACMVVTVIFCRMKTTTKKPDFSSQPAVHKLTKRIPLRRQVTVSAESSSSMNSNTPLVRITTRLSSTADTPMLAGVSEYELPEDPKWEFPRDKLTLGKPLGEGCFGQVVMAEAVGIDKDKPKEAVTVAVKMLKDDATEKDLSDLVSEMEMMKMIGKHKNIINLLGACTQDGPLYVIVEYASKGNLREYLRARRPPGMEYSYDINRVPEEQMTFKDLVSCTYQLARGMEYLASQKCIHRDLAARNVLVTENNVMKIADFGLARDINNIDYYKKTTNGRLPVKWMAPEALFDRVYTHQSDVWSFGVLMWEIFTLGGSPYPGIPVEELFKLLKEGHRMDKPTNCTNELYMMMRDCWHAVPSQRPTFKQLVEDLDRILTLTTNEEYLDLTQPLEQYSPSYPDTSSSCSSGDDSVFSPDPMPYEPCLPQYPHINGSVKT
T1 sequence (Q99N32 whole entry): as the sequence (Q99N32 whole entry, further chain) above
Protocol: (§2) Each FGFR/betaKlotho-expressing cells obtained in Example 6 were stimulated with FGF, and the activated state (phosphorylated state) of a signaling molecule FRS2 (fibroblast growth factor receptor substrate 2) located downstream of FGFR, and that of MAPK (mitogen activated protein kinase; alias: ERK (extracellular signal-regulated kinase; in general, there are two types of ERKs, namely, ERK1 with a molecular weight of 44 kDa and ERK2 with a molecular weight of 42 kDa)), were analyzed. Different types of cells were stimulated with each FGF in the presence of heparin for 10 minutes, and a cell lysate was then prepared. Thereafter, the phosphorylated degree was evaluated by measuring it by a Western blotting method using a commercially available anti-phosphorylation FRS2 antibody or an anti-phosphorylation MAPK antibody.

[3] = tested on: R3c/betaKlotho-expressing cells; assay: Phosphorylation of FRS2 and MAPK (Western blotting) in R3c/betaKlotho-expressing cells; type: cell-based, mouse; settings: presence of heparin; 10 minutes stimulation
R3c/betaKlotho-expressing cells, sequence (Q61851 21-369 limits assumed): as the sequence (Q61851 21-369 limits assumed) above
R3c/betaKlotho-expressing cells, sequence (Q99N32 whole entry, further chain): as the sequence (Q99N32 whole entry, further chain) above
Protocol: as §2

[4] = tested on: betaKlotho/FGFR-expressing cells (FGFR1b, R1c, R2b, R2c, R3b, R3c, R4); assay: Thymidine incorporation in betaKlotho/FGFR-expressing BaF3 cells with or without heparin; type: cell-based, mouse; settings: presence versus absence of heparin
Protocol: An expression vector of such FGF receptor (FGFR1b, R1c, R2b, F2c, R3b, R3c, and R4) was introduced into BaF3 cells expressing betaKlotho, and each type of betaKlotho/FGFR-expressing cells were stimulated with FGF21 and FGF1 in the presence or absence of heparin, so that the ability of the cells to incorporate thymidine therein was measured. As a result, it was shown that both FGFR1c- and FGFR3c-expressing cells react with FGF21.
as §1

Molecule | DNA synthesis (thymidine incorporated into the cells) [1] | phosphorylation of FRS2 and MAPK [2] | phosphorylation of FRS2 and MAPK [3] | influence of heparin on stimulus transmission activity (thymidine incorporation) [4]
FGF1: conventional FGF used as a control | reacts with all of the receptors | significantly increase the phosphorylation | significantly increase the phosphorylation | sharply increased in the presence of heparin
B1 | reacted with FGF21; also recorded: activates | only in FGFR1c/betaKlotho-expressing cells and FGFR3c/betaKlotho-expressing cells | increases the phosphorylation | does not significantly influence
